Measurements published in patent US20110129476A1 (MAX PLANCK GESELLSCHAFT ZUR FORDERUNG DER WISSENSCHAFTEN E V, published 2011).

What was measured:
[1] = molecular target: RACK1 (receptor for activated C kinase 1), endogenous protein of murine K46 B cells (mouse, UniProt P68040 1-317); experiment: reciprocal co-immunoprecipitation (α-RACK1; α-MZB1 5C11 Sepharose) from membrane and cytosolic fractions of K46 B cells, immunoblot
[2] = molecular target: T1, ERp57, endogenous protein of murine K46 B cells (mouse, UniProt P27773 25-505); experiment: formaldehyde crosslinking, α-MZB1 immunoprecipitation and mass spectrometry; co-immunoprecipitation of endogenous proteins from K46 extracts
T1 sequence (looked up): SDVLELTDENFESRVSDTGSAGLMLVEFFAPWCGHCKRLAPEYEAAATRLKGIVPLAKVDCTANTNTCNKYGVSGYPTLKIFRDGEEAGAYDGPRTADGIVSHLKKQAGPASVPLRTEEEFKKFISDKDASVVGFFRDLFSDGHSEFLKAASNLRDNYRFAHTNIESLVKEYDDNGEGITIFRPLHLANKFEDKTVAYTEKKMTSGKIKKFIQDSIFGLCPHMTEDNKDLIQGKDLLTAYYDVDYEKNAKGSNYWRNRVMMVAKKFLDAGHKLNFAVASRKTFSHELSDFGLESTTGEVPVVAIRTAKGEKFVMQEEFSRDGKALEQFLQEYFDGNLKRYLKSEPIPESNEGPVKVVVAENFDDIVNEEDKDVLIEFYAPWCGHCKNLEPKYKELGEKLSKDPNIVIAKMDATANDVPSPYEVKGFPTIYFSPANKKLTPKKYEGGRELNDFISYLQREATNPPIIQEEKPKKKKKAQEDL
Method: (§1) Approximately […] of K46 mature B cells were cultured until reaching the exponential growth phase, harvested and in vivo formaldehyde crosslinking was performed by adding 1% formaldehyde (final concentration) directly to the K46 cell culture. Cells were incubated for 10 min at 37° C. and 5% CO₂ and the crosslinking reaction was quenched by addition of 2.5M glycine with a final concentration of 125 mM. After crosslinking, cells were collected, washed with ice-cold PBS and frozen at −80° C. prior to lysis. […] The immunoprecipitated proteins were eluted with sample buffer and separated on a 4%-12% gradient SDS-PAGE. The gel was silver stained. The marked bands (arrow) were cut out and prepared for mass spectrometry analysis.

[3] = molecular target: GRP94 (Endoplasmin), endogenous protein of murine K46 B cells (mouse, UniProt P08113 22-802); experiment: as above
Sequence of GRP94 (Endoplasmin), endogenous protein of murine K46 B cells (P08113 22-802 limits assumed): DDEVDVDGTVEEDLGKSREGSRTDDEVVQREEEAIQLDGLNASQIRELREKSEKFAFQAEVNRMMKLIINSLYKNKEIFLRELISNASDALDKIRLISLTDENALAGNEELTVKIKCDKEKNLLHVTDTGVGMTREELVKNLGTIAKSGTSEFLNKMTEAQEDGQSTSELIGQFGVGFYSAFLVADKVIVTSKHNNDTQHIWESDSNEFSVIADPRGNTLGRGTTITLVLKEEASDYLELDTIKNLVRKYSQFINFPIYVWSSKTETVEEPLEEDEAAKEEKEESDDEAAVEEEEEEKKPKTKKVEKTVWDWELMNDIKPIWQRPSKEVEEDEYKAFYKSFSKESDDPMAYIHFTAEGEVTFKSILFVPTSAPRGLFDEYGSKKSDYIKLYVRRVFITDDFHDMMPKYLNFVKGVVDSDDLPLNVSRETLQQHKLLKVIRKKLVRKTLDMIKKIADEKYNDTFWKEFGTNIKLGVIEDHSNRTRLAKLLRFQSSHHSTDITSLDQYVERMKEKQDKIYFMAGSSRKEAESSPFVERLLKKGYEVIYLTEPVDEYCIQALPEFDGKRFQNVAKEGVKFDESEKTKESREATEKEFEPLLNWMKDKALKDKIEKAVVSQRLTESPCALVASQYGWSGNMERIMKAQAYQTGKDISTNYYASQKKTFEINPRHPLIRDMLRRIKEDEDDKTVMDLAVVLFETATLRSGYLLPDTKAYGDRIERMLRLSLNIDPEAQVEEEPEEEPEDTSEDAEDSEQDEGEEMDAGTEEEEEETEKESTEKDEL
Method: as §1

[4] = molecular target: T2, ERp44, endogenous protein of murine K46 B cells (mouse, UniProt Q9D1Q6 30-406); experiment: as above
T2 sequence (looked up): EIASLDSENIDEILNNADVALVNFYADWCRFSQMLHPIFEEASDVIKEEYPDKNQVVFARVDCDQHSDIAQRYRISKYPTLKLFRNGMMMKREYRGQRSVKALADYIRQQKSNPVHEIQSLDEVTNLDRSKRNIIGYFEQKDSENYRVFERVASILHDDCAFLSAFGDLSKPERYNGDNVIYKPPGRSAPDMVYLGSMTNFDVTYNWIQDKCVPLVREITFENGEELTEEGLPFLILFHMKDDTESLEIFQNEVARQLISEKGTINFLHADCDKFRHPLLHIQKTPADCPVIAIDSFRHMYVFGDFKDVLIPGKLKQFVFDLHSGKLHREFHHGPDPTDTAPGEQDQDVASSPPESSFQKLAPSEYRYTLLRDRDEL
Method: as §1

- binding result [1]: binds
- binding result [2]: binds
- binding result [3]: binds
- binding result [4]: binds
B1: MZB1 (marginal zone B1 B cell factor 1), endogenous protein of murine K46 mature B cells (other)
chain: GDRVSLSASAPTLDDEEKYSAHMPAHLRCDACRAVAFQMGQRLAKAEAKSHTPDASGLQELSESTYTDVLDQTCSQNWQSYGVHEVNQMKRLTGPGLSKGPEPRISVMISGGPWPNRLSKTCFHYLGEFGEDQIYEAYRQGQANLEALLCGGTHGPCSQEILAQREEL
notes: Endogenous protein in K46 cell extracts (whole cell, membrane or cytosolic fraction); also called AL1
